# Measurements as given in US20250109203A1.
# Target: human γδ TCR (Vγ9Vδ2) on human Vδ2+ γδ T cells (human) (UniProt A0JD36)
# Assay: flow cytometry on expanded human Vδ2+ γδ T cells, nonlinear fit
row,Kd [nM],Binder
1,42.2,hu1D7v11 VHH-hIgG1 Fc-NNT (monomeric) (VHH) VHH: EVQLLESGGGEVQPGGSLRLSCVASRGKISQYRMGWYRQAPGKGLEWVAAISNTGDAAEYVDSVKGRFTISRDSTKNAVYLQMSSLRAEDTAVYKCNSVEDILAWGQGTLVTVKP
2,23.8,hu1D7v59 VHH-hIgG1 Fc-NNT (monomeric) (VHH) VHH: EVQLLESGGGEVQPGGSLRLSCVASRGKISQYRMGWYRQAPGKERELVAHISNTGDAAEYVAPVKDRFTISRDSTKNALYLQMSSLRAEDTAVYKCNSVEDILAWGQGTLVTVRP
3,35.7,hu1D7v32 VHH-hIgG1 Fc-NNT (monomeric) (VHH) VHH: EVQLLESGGGEVQPGGSLRLSCVASRGKISQYRMGWYRQAPGKELEWVAHISNTGDAAEYVESVKGRFTISRDSTKNAVYLQMSSLRAEDTAVYKCNSVEDILAWGQGTLVTVKP
4,13,hu1D7v33 VHH-hIgG1 Fc-NNT (monomeric) (VHH) VHH: EVQLLESGGGEVQPGGSLRLSCVASRGKISQYRMGWYRQAPGKELEWVAHISNTGDAAEYVDSVKDRFTISRDSTKNAVYLQMSSLRAEDTAVYKCNSVEDILAWGQGTLVTVKP
5,10.5,hu1D7v57 VHH-hIgG1 Fc-NNT (monomeric) (VHH) VHH: EVQLLESGGGEVQPGGSLRLSCVASRGKISQYRMGWYRQAPGKERELVAHISNTGDAAEYVDSVKGRFTISRDSTKNALYLQMSSLRAEDTAVYKCNSVEDILAWGQGTLVTVRP
6,8.07,hu1D7v58 VHH-hIgG1 Fc-NNT (monomeric) (VHH) VHH: EVQLLESGGGEVQPGGSLRLSCVASRGKISQYRMGWYRQAPGKERELVAHISNTGDAAEYVDSVKDRFTISRDSTKNALYLQMSSLRAEDTAVYKCNSVEDILAWGQGTLVTVRP
7,9.67,hu1D7v60 VHH-hIgG1 Fc-NNT (monomeric) (VHH) VHH: EVQLLESGGGEVQPGGSLRLSCVASRGKISQYRMGWYRQAPGKERELVAHISNTGDAAEYVDSVKDRFTISRDNAKNALYLQMSSLRAEDTAVYKCNSVEDILAWGQGTLVTVRP
8,11.7,hu1D7v34 VHH-hIgG1 Fc-NNT (monomeric) (VHH) VHH: EVQLLESGGGEVQPGGSLRLSCVASRGKISQYRMGWYRQAPGKELEWVAHISNTGDAAEYVDSVKGRFTISRDNAKNAVYLQMSSLRAEDTAVYKCNSVEDILAWGQGTLVTVKP
9,16.7,hu1D7v31 VHH-hIgG1 Fc-NNT (monomeric) (VHH) VHH: EVQLLESGGGEVQPGGSLRLSCVASRGKISQYRMGWYRQAPGKELEWVAHISNTGDAAEYVAPVKGRFTISRDSTKNAVYLQMSSLRAEDTAVYKCNSVEDILAWGQGTLVTVKP
10,1500,hu1D7v36 VHH-hIgG1 Fc-NNT (monomeric) (VHH) VHH: EVQLLESGGGEVQPGGSLRLSCVASRGKISQYRMGWYRQAPGKELEWVAHISNTGDAAEYVDSVKGRFTISRDSTKNAVYLQMSSLRAEDTAVYYCNSVEDILAWGQGTLVTVKP
11,29.1,hu1D7v22 VHH-hIgG1 Fc-NNT (monomeric) (VHH) VHH: EVQLLESGGGEVQPGGSLRLSCVASRGKISQYRMGWYRQAPGKGLEWVAHISNTGDAAEYVDSVKGRFTISRDSTKNTVYLQMSSLRAEDTAVYKCNSVEDILAWGQGTLVTVKP
12,866000,hu1D7v25 VHH-hIgG1 Fc-NNT (monomeric) (VHH) VHH: EVQLLESGGGEVQPGGSLRLSCVASRGKISQYRMGWYRQAPGKGLEWVAHISNTGDAAEYVDSVKGRFTISRDSTKNAVYLQMSSLRAEDTAVYKCASVEDILAWGQGTLVTVKP
13,9440,hu1D7v24 VHH-hIgG1 Fc-NNT (monomeric) (VHH) VHH: EVQLLESGGGEVQPGGSLRLSCVASRGKISQYRMGWYRQAPGKGLEWVAHISNTGDAAEYVDSVKGRFTISRDSTKNAVYLQMSSLRAEDTAVYKCNAVEDILAWGQGTLVTVKP
14,347,hu1D7v65 VHH-hIgG1 Fc-NNT (monomeric) (VHH) VHH: EVQLLESGGGEVQPGGSLRLSCVASRGKISQYRMGWYRQAPGKERELVAHISNTGDAAEYVDAVKDRFTISRDSTKNALYLQMSSLRAEDTAVYKCNSVEDILAWGQGTLVTVRP
15,26.7,hu1D7v19 VHH-hIgG1 Fc-NNT (monomeric) (VHH) VHH: EVQLLESGGGEVQPGGSLRLSCVASRGKISQYRMGWYRQAPGKGLEWVAHISNTGDAAEYVDSVKDRFTISRDSTKNAVYLQMSSLRAEDTAVYKCNSVEDILAWGQGTLVTVKP
16,41.3,hu1D7v61 VHH-hIgG1 Fc-NNT (monomeric) (VHH) VHH: EVQLLESGGGEVQPGGSLRLSCVASRGKISQYRMGWYRQAPGKERELVAHISNTGDAAEYVDSVKDRFTISRDSTKNALYLQMSSLRAEDTAVYKCNTVEDILAWGQGTLVTVRP
17,15.7,hu1D7v28 VHH-hIgG1 Fc-NNT (monomeric) (VHH) VHH: EVQLLESGGGEVQPGGSLRLSCAASRGKISQYRMGWYRQAPGKELEWVAHISNTGDAAEYVDSVKGRFTISRDSTKNAVYLQMSSLRAEDTAVYKCNSVEDILAWGQGTLVTVKP
18,38.4,hu1D7v30 VHH-hIgG1 Fc-NNT (monomeric) (VHH) VHH: EVQLLESGGGEVQPGGSLRLSCVASRGKISQYRMGWYRQAPGKELEWVAHISNTGDAAYYVDSVKGRFTISRDSTKNAVYLQMSSLRAEDTAVYKCNSVEDILAWGQGTLVTVKP

row,Kd [nM],Binder
1,7230,hu1D7v29 VHH-hIgG1 Fc-NNT (monomeric) (VHH) VHH: EVQLLESGGGEVQPGGSLRLSCVASRGKISSYRMGWYRQAPGKELEWVAHISNTGDAAEYVDSVKGRFTISRDSTKNAVYLQMSSLRAEDTAVYKCNSVEDILAWGQGTLVTVKP
2,16.4,hu1D7v15 VHH-hIgG1 Fc-NNT (monomeric) (VHH) VHH: EVQLLESGGGEVQPGGSLRLSCVASRGKISQYRMGWYRQAPGKGLEWVAHISNTGDSAEYVDSVKGRFTISRDSTKNAVYLQMSSLRAEDTAVYKCNSVEDILAWGQGTLVTVKP
3,18.1,hu1D7v23 VHH-hIgG1 Fc-NNT (monomeric) (VHH) VHH: EVQLLESGGGEVQPGGSLRLSCVASRGKISQYRMGWYRQAPGKGLEWVAHISNTGDAAEYVDSVKGRFTISRDSTKNALYLQMSSLRAEDTAVYKCNSVEDILAWGQGTLVTVKP
4,42.5,hu1D7v18 VHH-hIgG1 Fc-NNT (monomeric) (VHH) VHH: EVQLLESGGGEVQPGGSLRLSCVASRGKISQYRMGWYRQAPGKGLEWVAHISNTGDAAEYAESVKGRFTISRDSTKNAVYLQMSSLRAEDTAVYKCNSVEDILAWGQGTLVTVKP
5,7.99,hu1D7v39 VHH-hIgG1 Fc-NNT (monomeric) (VHH) VHH: EVQLLESGGGEVQPGGSLRLSCVASRGKISQYRMGWYRQAPGKELEWVAHISNTGDAAEYVDSVKGRFTISRDSTKNAVYLQMSSLRAEDTAVYKCNSVEDILAWGQGTLVTVRP
6,24.6,hu1D7v16 VHH-hIgG1 Fc-NNT (monomeric) (VHH) VHH: EVQLLESGGGEVQPGGSLRLSCVASRGKISQYRMGWYRQAPGKGLEWVAHISNTGDATEYVDSVKGRFTISRDSTKNAVYLQMSSLRAEDTAVYKCNSVEDILAWGQGTLVTVKP
7,5.23,hu1D7v1 VHH-hIgG1 Fc-NNT (monomeric) (VHH) VHH: EVQLLESGGGEVQPGGSLRLSCVASRGKISQYRMGWYRQAPGKGLEWVAHISNTGDAAEYVDSVKGRFTISRDSTKNAVYLQMSSLRAEDTAVYKCNSVEDILAWGQGTLVTVKP
8,20.1,hu1D7v17 VHH-hIgG1 Fc-NNT (monomeric) (VHH) VHH: EVQLLESGGGEVQPGGSLRLSCVASRGKISQYRMGWYRQAPGKGLEWVAHISNTGDAAYYVDSVKGRFTISRDSTKNAVYLQMSSLRAEDTAVYKCNSVEDILAWGQGTLVTVKP
9,20200,hu1D7v38 VHH-hIgG1 Fc-NNT (monomeric) (VHH) VHH: EVQLLESGGGEVQPGGSLRLSCVASRGKISQYRMGWYRQAPGKELEWVAHISNTGDAAEYVDSVKGRFTISRDSTKNAVYLQMSSLRAEDTAVYKCNVVEDILAWGQGTLVTVKP
10,21.5,hu1D7v14 VHH-hIgG1 Fc-NNT (monomeric) (VHH) VHH: EVQLLESGGGEVQPGGSLRLSCVASRGKISQYRMGWYRQAPGKGLEWVAHISNTGGAAEYVDSVKGRFTISRDSTKNAVYLQMSSLRAEDTAVYKCNSVEDILAWGQGTLVTVKP
11,29,hu1D7v26 VHH-hIgG1 Fc-NNT (monomeric) (VHH) VHH: EVQLLESGGGEVQPGGSLRLSCVASRGKISQYRMGWYRQAPGKGLEWVAHISNTGDAAEYVDSVKGRFTISRDSTKNAVYLQMSSLRAEDTAVYYCNSVEDILAWGQGTLVTVKP
12,8.4,hu1D7v35 VHH-hIgG1 Fc-NNT (monomeric) (VHH) VHH: EVQLLESGGGEVQPGGSLRLSCVASRGKISQYRMGWYRQAPGKELEWVAHISNTGDAAEYVDSVKGRFTISRDSTKNALYLQMSSLRAEDTAVYKCNSVEDILAWGQGTLVTVKP
13,8860,hu1D7v4 VHH-hIgG1 Fc-NNT (monomeric) (VHH) VHH: EVQLLESGGGEVQPGGSLRLSCVASRFKISQYRMGWYRQAPGKGLEWVAHISNTGDAAEYVDSVKGRFTISRDSTKNAVYLQMSSLRAEDTAVYKCNSVEDILAWGQGTLVTVKP
14,18.2,hu1D7v13 VHH-hIgG1 Fc-NNT (monomeric) (VHH) VHH: EVQLLESGGGEVQPGGSLRLSCVASRGKISQYRMGWYRQAPGKGLEWVAHISNSGDAAEYVDSVKGRFTISRDSTKNAVYLQMSSLRAEDTAVYKCNSVEDILAWGQGTLVTVKP
15,17.4,hu1D7v37 VHH-hIgG1 Fc-NNT (monomeric) (VHH) VHH: EVQLLESGGGEVQPGGSLRLSCVASRGKISQYRMGWYRQAPGKELEWVAHISNTGDAAEYVDSVKGRFTISRDSTKNAVYLQMSSLRAEDTAVYKCNTVEDILAWGQGTLVTVKP
16,6.09,"1D7 VHH-hIgG1 Fc-NNT (monomeric, parental) (VHH) VHH: QVQLVQSGGGLVQPGGSLRLSCVASRGKISQYRMGWYRQAPGKQRELVAHISNTGDAAEYVDSVKGRFTISRDSTKNAVYLQMNSLKPEDTAVYKCNSVEDILAWGQGTQVTVKP"
17,14.7,hu1D7v63 VHH-hIgG1 Fc-NNT (monomeric) (VHH) VHH: EVQLLESGGGEVQPGGSLRLSCAASRGKISQYRMGWYRQAPGKERELVAHISNTGDAAEYVAPVKDRFTISRDNAKNALYLQMSSLRAEDTAVYKCNTVEDILAWGQGTLVTVRP
